Earlier results in publication PMC3784502.

Molecular target: APC 15-aa repeat region (Homo sapiens) (UniProt P25054)
UniProt P25054, sequence (P25054 1020-1169): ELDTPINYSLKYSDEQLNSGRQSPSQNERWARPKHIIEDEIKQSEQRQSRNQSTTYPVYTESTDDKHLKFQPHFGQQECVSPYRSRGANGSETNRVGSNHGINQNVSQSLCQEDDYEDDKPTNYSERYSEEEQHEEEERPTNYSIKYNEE

## β-catenin ARM repeats 5-9 (from UniProt P35222)
  Kd: 273 nM
